According to US20200361992A1 (PROTAGONIST THERAPEUTICS, published 2020):
Each block holds one binder with its values, some of them ahead of it. Starred links: 1 amine or outer side, 2 acyl side, 3 side chain; linkers in the order of their positions; H or OH if unused. Positions of bridges follow the written chain, without caps; N, C: chain ends. Non-standard residues stand in square brackets, D forms with d. Groups on a side chain read outwards from the residue. *: point of attachment. PEG12 = NCCOCCOCCOCCOCCOCCOCCOCCOCCOCCOCCOCCOCCC(=O)O; Dip = N[C@H](C(=O)O)C(c1ccccc1)c1ccccc1; NPC = nipecotic acid (L-nipecotic acid); γGlu = O=C(O)[C@H](CCC(=O)[*:2])N[*:1]; Palmitoyl = CCCCCCCCCCCCCCCC(=O)*; NMeF = CN[C@@H](Cc1ccccc1)C(=O)O; αMeF = C[C@](N)(Cc1ccccc1)C(=O)O; β3hF = N[C@H](CC(=O)O)Cc1ccccc1; Isovaleryl = CC(C)CC(=O)*

Target: T1, human ferroportin (SLC40A1) fused in frame with the GFP protein, stably expressed in HEK293 cells (human, UniProt Q9NP59 1-571)
T1 sequence (looked up): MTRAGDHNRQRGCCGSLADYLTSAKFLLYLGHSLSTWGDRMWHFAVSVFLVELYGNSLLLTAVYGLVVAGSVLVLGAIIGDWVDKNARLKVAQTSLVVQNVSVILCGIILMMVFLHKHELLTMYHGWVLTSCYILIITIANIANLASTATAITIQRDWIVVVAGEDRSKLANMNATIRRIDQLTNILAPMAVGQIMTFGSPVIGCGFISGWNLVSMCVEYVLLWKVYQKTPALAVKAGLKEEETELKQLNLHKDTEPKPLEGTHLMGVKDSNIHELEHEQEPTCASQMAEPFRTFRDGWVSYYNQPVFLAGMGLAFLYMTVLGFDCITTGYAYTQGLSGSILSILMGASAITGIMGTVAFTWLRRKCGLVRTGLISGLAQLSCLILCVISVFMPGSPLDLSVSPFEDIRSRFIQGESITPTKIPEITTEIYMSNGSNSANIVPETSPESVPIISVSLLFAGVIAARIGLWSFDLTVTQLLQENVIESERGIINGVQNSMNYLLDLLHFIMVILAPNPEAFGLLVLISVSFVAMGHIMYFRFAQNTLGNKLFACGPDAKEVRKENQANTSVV
Assay: cell-based or functional assay

B1: Compd ID 210 (peptide)
peptide: Isovaleryl-DTHFPCIK([γGlu-Palmitoyl])FCK-NH2
modifications: disulfide 6-10
SMILES: CCCCCCCCCCCCCCCC(=O)N[C@@H](CCC(=O)NCCCC[C@@H]1NC(=O)[C@H]([C@@H](C)CC)NC(=O)[C@@H](NC(=O)[C@@H]2CCCN2C(=O)[C@H](Cc2ccccc2)NC(=O)[C@H](Cc2c[nH]cn2)NC(=O)[C@@H](NC(=O)[C@H](CC(=O)O)NC(=O)CC(C)C)[C@@H](C)O)CSSC[C@@H](C(=O)N[C@@H](CCCCN)C(N)=O)NC(=O)[C@H](Cc2ccccc2)NC1=O)C(=O)O
FPN IC50: 0.06 µM

B2: Compd ID 214 (peptide)
peptide: Isovaleryl-DTHFPCIK([γGlu-Palmitoyl])[β3hF]C-NH2
modifications: disulfide 6-10
SMILES: CCCCCCCCCCCCCCCC(=O)N[C@@H](CCC(=O)NCCCC[C@@H]1NC(=O)[C@H]([C@@H](C)CC)NC(=O)[C@@H](NC(=O)[C@@H]2CCCN2C(=O)[C@H](Cc2ccccc2)NC(=O)[C@H](Cc2c[nH]cn2)NC(=O)[C@@H](NC(=O)[C@H](CC(=O)O)NC(=O)CC(C)C)[C@@H](C)O)CSSC[C@@H](C(N)=O)NC(=O)C[C@H](Cc2ccccc2)NC1=O)C(=O)O
FPN IC50: 0.036 µM

B5: Compd ID 207 (peptide)
peptide: Isovaleryl-DTHFPCIK([γGlu-Palmitoyl])FC-NH2
modifications: disulfide 6-10
SMILES: CCCCCCCCCCCCCCCC(=O)N[C@@H](CCC(=O)NCCCC[C@@H]1NC(=O)[C@H]([C@@H](C)CC)NC(=O)[C@@H](NC(=O)[C@@H]2CCCN2C(=O)[C@H](Cc2ccccc2)NC(=O)[C@H](Cc2c[nH]cn2)NC(=O)[C@@H](NC(=O)[C@H](CC(=O)O)NC(=O)CC(C)C)[C@@H](C)O)CSSC[C@@H](C(N)=O)NC(=O)[C@H](Cc2ccccc2)NC1=O)C(=O)O
FPN IC50: 0.064 µM

B7: Compd ID 215 (peptide)
peptide: Isovaleryl-DTHFPCIK([γGlu-Palmitoyl])[αMeF]C-NH2
modifications: disulfide 6-10
SMILES: CCCCCCCCCCCCCCCC(=O)N[C@@H](CCC(=O)NCCCC[C@@H]1NC(=O)[C@H]([C@@H](C)CC)NC(=O)[C@@H](NC(=O)[C@@H]2CCCN2C(=O)[C@H](Cc2ccccc2)NC(=O)[C@H](Cc2c[nH]cn2)NC(=O)[C@@H](NC(=O)[C@H](CC(=O)O)NC(=O)CC(C)C)[C@@H](C)O)CSSC[C@@H](C(N)=O)NC(=O)[C@](C)(Cc2ccccc2)NC1=O)C(=O)O
FPN IC50: 0.096 µM

B10: Compd ID 212 (peptide)
peptide: Isovaleryl-DTHFPCI[dK]([γGlu-Palmitoyl])[NMeF]GC-NH2
modifications: disulfide 6-11
SMILES: CCCCCCCCCCCCCCCC(=O)N[C@@H](CCC(=O)NCCCC[C@H]1NC(=O)[C@H]([C@@H](C)CC)NC(=O)[C@@H](NC(=O)[C@@H]2CCCN2C(=O)[C@H](Cc2ccccc2)NC(=O)[C@H](Cc2c[nH]cn2)NC(=O)[C@@H](NC(=O)[C@H](CC(=O)O)NC(=O)CC(C)C)[C@@H](C)O)CSSC[C@@H](C(N)=O)NC(=O)CNC(=O)[C@H](Cc2ccccc2)N(C)C1=O)C(=O)O
FPN IC50: 0.403 µM

B11: Compd ID 206 (peptide)
peptide: Isovaleryl-DTHFPCIK([γGlu-Palmitoyl])FEC-NH2
modifications: disulfide 6-11
SMILES: CCCCCCCCCCCCCCCC(=O)N[C@@H](CCC(=O)NCCCC[C@@H]1NC(=O)[C@H]([C@@H](C)CC)NC(=O)[C@@H](NC(=O)[C@@H]2CCCN2C(=O)[C@H](Cc2ccccc2)NC(=O)[C@H](Cc2c[nH]cn2)NC(=O)[C@@H](NC(=O)[C@H](CC(=O)O)NC(=O)CC(C)C)[C@@H](C)O)CSSC[C@@H](C(N)=O)NC(=O)[C@H](CCC(=O)O)NC(=O)[C@H](Cc2ccccc2)NC1=O)C(=O)O
FPN IC50: 0.267 µM

B12: Compd ID 205 (peptide)
peptide: Isovaleryl-DTHFPCIK([γGlu-Palmitoyl])FEPC-NH2
modifications: disulfide 6-12
SMILES: CCCCCCCCCCCCCCCC(=O)N[C@@H](CCC(=O)NCCCC[C@@H]1NC(=O)[C@H]([C@@H](C)CC)NC(=O)[C@@H](NC(=O)[C@@H]2CCCN2C(=O)[C@H](Cc2ccccc2)NC(=O)[C@H](Cc2c[nH]cn2)NC(=O)[C@@H](NC(=O)[C@H](CC(=O)O)NC(=O)CC(C)C)[C@@H](C)O)CSSC[C@@H](C(N)=O)NC(=O)[C@@H]2CCCN2C(=O)[C@H](CCC(=O)O)NC(=O)[C@H](Cc2ccccc2)NC1=O)C(=O)O
FPN IC50: 0.064 µM

Now from value to binder:

FPN IC50: > 3 µM
B3: Compd ID 217 (peptide)
peptide: Isovaleryl-DTH[αMeF]PCIK([γGlu-Palmitoyl])[αMeF]C-NH2
modifications: disulfide 6-10
SMILES: CCCCCCCCCCCCCCCC(=O)N[C@@H](CCC(=O)NCCCC[C@@H]1NC(=O)[C@H]([C@@H](C)CC)NC(=O)[C@@H](NC(=O)[C@@H]2CCCN2C(=O)[C@](C)(Cc2ccccc2)NC(=O)[C@H](Cc2c[nH]cn2)NC(=O)[C@@H](NC(=O)[C@H](CC(=O)O)NC(=O)CC(C)C)[C@@H](C)O)CSSC[C@@H](C(N)=O)NC(=O)[C@](C)(Cc2ccccc2)NC1=O)C(=O)O

FPN IC50: 0.047 µM
B4: Compd ID 223 (peptide)
peptide: Isovaleryl-DTHFPCIK([γGlu-Palmitoyl])FC-NH2
modifications: disulfide 6-10
SMILES: CCCCCCCCCCCCCCCC(=O)N[C@@H](CCC(=O)NCCCC[C@@H]1NC(=O)[C@H]([C@@H](C)CC)NC(=O)[C@@H](NC(=O)[C@@H]2CCCN2C(=O)[C@H](Cc2ccccc2)NC(=O)[C@H](Cc2c[nH]cn2)NC(=O)[C@@H](NC(=O)[C@H](CC(=O)O)NC(=O)CC(C)C)[C@@H](C)O)CSSC[C@@H](C(N)=O)NC(=O)[C@H](Cc2ccccc2)NC1=O)C(=O)O

FPN IC50: 0.016 µM
B6: Compd ID 216 (peptide)
peptide: Isovaleryl-DTH[Dip]PCIK([γGlu-Palmitoyl])[αMeF]C-NH2
modifications: disulfide 6-10
SMILES: CCCCCCCCCCCCCCCC(=O)N[C@@H](CCC(=O)NCCCC[C@@H]1NC(=O)[C@H]([C@@H](C)CC)NC(=O)[C@@H](NC(=O)[C@@H]2CCCN2C(=O)[C@@H](NC(=O)[C@H](Cc2c[nH]cn2)NC(=O)[C@@H](NC(=O)[C@H](CC(=O)O)NC(=O)CC(C)C)[C@@H](C)O)C(c2ccccc2)c2ccccc2)CSSC[C@@H](C(N)=O)NC(=O)[C@](C)(Cc2ccccc2)NC1=O)C(=O)O

FPN IC50: 0.004 µM
B8: Compd ID 222 (peptide)
peptide: Isovaleryl-DTHFPCIK([PEG12-Palmitoyl])FC-NH2
modifications: disulfide 6-10
SMILES: CCCCCCCCCCCCCCCC(=O)NCCOCCOCCOCCOCCOCCOCCOCCOCCOCCOCCOCCOCCC(=O)NCCCC[C@@H]1NC(=O)[C@H]([C@@H](C)CC)NC(=O)[C@@H](NC(=O)[C@@H]2CCCN2C(=O)[C@H](Cc2ccccc2)NC(=O)[C@H](Cc2c[nH]cn2)NC(=O)[C@@H](NC(=O)[C@H](CC(=O)O)NC(=O)CC(C)C)[C@@H](C)O)CSSC[C@@H](C(N)=O)NC(=O)[C@H](Cc2ccccc2)NC1=O

FPN IC50: 0.182 µM
B9: Compd ID 219 (peptide)
peptide: Isovaleryl-DTH[β3hF]PCIK([γGlu-Palmitoyl])[αMeF]C-NH2
modifications: disulfide 6-10
SMILES: CCCCCCCCCCCCCCCC(=O)N[C@@H](CCC(=O)NCCCC[C@@H]1NC(=O)[C@H]([C@@H](C)CC)NC(=O)[C@@H](NC(=O)[C@@H]2CCCN2C(=O)C[C@H](Cc2ccccc2)NC(=O)[C@H](Cc2c[nH]cn2)NC(=O)[C@@H](NC(=O)[C@H](CC(=O)O)NC(=O)CC(C)C)[C@@H](C)O)CSSC[C@@H](C(N)=O)NC(=O)[C@](C)(Cc2ccccc2)NC1=O)C(=O)O

FPN IC50: 0.871 µM
B13: Compd ID 220 (peptide)
peptide: Isovaleryl-DTHWPCIK([γGlu-Palmitoyl])[αMeF]C-NH2
modifications: disulfide 6-10
SMILES: CCCCCCCCCCCCCCCC(=O)N[C@@H](CCC(=O)NCCCC[C@@H]1NC(=O)[C@H]([C@@H](C)CC)NC(=O)[C@@H](NC(=O)[C@@H]2CCCN2C(=O)[C@H](Cc2c[nH]c3ccccc23)NC(=O)[C@H](Cc2c[nH]cn2)NC(=O)[C@@H](NC(=O)[C@H](CC(=O)O)NC(=O)CC(C)C)[C@@H](C)O)CSSC[C@@H](C(N)=O)NC(=O)[C@](C)(Cc2ccccc2)NC1=O)C(=O)O

FPN IC50: 0.079 µM
B14: Compd ID 221 (peptide)
peptide: Isovaleryl-DTHF[NPC]CIK([γGlu-Palmitoyl])[αMeF]C-NH2
modifications: disulfide 6-10

FPN IC50: > 3 µM
B15: Compd ID 218 (peptide)
peptide: Isovaleryl-DTH[NMeF]PCIK([γGlu-Palmitoyl])[αMeF]C-NH2
modifications: disulfide 6-10
SMILES: CCCCCCCCCCCCCCCC(=O)N[C@@H](CCC(=O)NCCCC[C@@H]1NC(=O)[C@H]([C@@H](C)CC)NC(=O)[C@@H](NC(=O)[C@@H]2CCCN2C(=O)[C@H](Cc2ccccc2)N(C)C(=O)[C@H](Cc2c[nH]cn2)NC(=O)[C@@H](NC(=O)[C@H](CC(=O)O)NC(=O)CC(C)C)[C@@H](C)O)CSSC[C@@H](C(N)=O)NC(=O)[C@](C)(Cc2ccccc2)NC1=O)C(=O)O
